According to US20060198852A1:
Read-outs that look alike come from different tables or passages of the source.

Experiments:
[1] = target: bovine type I collagen (bovine) (UniProt P02453)
[2] = target: bovine type I collagen (bovine) (UniProt P02453); experiment: SPR, BIAcore 3000, collagen immobilized on CM5 chip
[3] = target: bovine type I collagen (bovine) (UniProt P02453); experiment: SPR, from the kinetic rates ka and kd; SPR, from ka and kd
[4] = target: bovine type I collagen (bovine) (UniProt P02453); experiment: SPR, equilibrium responses, one-site-binding nonlinear regression
[5] = target: bovine type I collagen (bovine) (UniProt P02453); experiment: SPR, Scatchard analysis of equilibrium responses; SPR, Scatchard analysis
[6] = target: bovine type I collagen (bovine) (UniProt P02453); remark: listed apart in the source

Chain of UniProt P02453 (P02453 162-1217 limits assumed, chain 1 of 2): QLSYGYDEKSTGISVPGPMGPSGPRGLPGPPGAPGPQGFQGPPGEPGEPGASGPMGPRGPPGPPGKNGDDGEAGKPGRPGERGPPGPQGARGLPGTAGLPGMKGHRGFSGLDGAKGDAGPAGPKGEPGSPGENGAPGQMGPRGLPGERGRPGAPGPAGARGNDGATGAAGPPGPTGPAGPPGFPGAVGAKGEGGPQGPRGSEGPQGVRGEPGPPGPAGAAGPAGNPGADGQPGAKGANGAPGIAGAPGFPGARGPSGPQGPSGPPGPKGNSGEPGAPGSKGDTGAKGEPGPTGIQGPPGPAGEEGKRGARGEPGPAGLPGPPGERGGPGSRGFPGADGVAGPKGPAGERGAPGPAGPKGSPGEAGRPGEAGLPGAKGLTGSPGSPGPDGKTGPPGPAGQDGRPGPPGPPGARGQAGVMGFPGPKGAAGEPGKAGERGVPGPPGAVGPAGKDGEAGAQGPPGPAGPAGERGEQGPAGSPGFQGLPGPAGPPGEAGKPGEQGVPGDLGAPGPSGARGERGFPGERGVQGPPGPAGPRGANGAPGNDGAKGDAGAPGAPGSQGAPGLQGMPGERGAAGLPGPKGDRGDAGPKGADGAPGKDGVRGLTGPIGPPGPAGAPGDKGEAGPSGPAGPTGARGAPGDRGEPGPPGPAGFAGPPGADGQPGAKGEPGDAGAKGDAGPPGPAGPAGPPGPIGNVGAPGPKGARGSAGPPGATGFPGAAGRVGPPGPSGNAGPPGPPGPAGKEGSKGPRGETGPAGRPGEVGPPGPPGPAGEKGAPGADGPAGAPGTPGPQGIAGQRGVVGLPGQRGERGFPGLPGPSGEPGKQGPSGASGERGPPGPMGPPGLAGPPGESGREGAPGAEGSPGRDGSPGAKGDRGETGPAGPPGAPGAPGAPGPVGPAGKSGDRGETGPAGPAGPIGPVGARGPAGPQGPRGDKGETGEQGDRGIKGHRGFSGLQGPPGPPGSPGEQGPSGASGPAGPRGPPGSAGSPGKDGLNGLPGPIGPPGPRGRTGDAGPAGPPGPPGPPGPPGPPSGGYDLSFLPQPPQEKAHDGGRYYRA
Chain of UniProt P02453 (P02465 80-1117 limits assumed, chain 2 of 2, further chain): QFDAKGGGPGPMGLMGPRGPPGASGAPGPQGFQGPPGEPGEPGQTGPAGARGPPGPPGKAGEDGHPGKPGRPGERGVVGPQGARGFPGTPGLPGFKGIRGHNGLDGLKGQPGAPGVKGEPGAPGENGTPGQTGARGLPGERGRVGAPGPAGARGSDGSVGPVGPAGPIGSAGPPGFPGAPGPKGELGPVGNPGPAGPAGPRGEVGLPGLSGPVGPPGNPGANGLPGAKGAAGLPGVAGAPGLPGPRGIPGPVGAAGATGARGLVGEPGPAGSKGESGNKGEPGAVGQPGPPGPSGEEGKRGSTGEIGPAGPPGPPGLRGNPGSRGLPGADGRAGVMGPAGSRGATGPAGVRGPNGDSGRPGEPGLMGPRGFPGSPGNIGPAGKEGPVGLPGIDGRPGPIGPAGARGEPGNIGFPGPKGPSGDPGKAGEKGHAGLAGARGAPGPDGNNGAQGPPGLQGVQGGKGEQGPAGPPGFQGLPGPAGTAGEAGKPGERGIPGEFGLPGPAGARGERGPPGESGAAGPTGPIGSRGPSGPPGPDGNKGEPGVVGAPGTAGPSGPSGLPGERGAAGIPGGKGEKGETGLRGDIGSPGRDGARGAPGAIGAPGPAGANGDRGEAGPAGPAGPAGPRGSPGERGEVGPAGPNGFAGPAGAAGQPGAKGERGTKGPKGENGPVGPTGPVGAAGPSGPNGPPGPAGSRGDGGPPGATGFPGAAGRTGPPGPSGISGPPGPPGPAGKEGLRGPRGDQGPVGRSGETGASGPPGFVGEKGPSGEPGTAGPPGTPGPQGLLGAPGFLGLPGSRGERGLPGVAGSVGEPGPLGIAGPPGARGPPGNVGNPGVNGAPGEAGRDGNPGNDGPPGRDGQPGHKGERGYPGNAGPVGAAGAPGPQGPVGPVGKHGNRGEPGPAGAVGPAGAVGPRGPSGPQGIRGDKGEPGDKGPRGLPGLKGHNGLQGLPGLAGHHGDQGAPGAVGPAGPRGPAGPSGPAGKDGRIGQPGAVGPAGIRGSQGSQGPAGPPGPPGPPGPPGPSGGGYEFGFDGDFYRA

Substance	Kd [1]	koff [2]	kon [2]	Kd [3]	Kd [4]	Kd [5]	Kd [6]
rBA0871A, recombinant His-tag fusion protein of the A region (amino acid residues 42-765) of BA0871	0.19 µM	0.0043 s⁻¹	2800 M⁻¹ s⁻¹	1.6 µM	3.2 µM	2.4 µM	
rBA5258A, recombinant His-tag fusion protein of the A region (amino acid residues 32-366) of BA5258	0.03 µM				0.9 µM		0.6 µM
